Columns and labels:
[1] = Pilot capillary electrophoresis desulfation assay with monosulfated 4-MU gluco- and galactopyranosides; type: biochemical
Description: Initial assessment of substrate specificity and pH optima was made using a capillary electrophoresis-based assay for the detection of desulfated products. Preliminary enzyme activity was measured against the following series of fluorescently derivatized, monosulfated gluco and galactopyranosides: 4-MU-GlcNAc,6S, 4-MU-GlcNS, 4-MU-GalNAc,6S and 4-MU-Gal6S. Standard reactions included 1 mM substrate, 1-10 μM enzyme, 50 mM sodium acetate, pH 5.5-6.5 and 5 mM CaCl2 in a 20 μL reaction volume. For pilot experiments, exhaustive reactions involved overnight incubations at 30° C. Enzyme was inactivated by heat denaturation at 95° C. for 10 minutes, followed by a 10-fold dilution into water. Reaction products were resolved by capillary electrophoresis using a 25 cm long, 75 μm (i.d.) fused silica capillary (Agilent Technologies, Palo Alto, Calif.). Electrophoresis was carried out under negative polarity by applying a voltage of −15 kV (˜1.2 W) for 10 minutes. Substrate desulfation was measured as a percentage of substrate depletion relative to a minus enzyme control as monitored by the loss of UV absorbance at 315 nm detected at approximately 4 minutes. A standard capillary electrophoresis buffer included 50 mM Tris and 10 μM dextran sulfate (average MW of 10,000 Da) adjusted to pH 2.0 with phosphoric acid. At this pH, saccharide migration occurred on the basis of charge without the influence of electro-osmotic flow.

[2] = Coupled N-sulfamidase/α-glucosidase fluorimetric plate assay (reaction conditions, steady-state kinetics); type: biochemical
Text: (§1) Indirect measurement of enzyme activity was also made using a fluorimetrically-based plate assay in which the prerequisite desulfation of the appropriate glucopyranoside 1→4 methlybelliferone substrate by either the 6-O-sulfatase or N-sulfamidase was coupled to the glucosidase-mediated hydrolysis of the stereo-specific 1→4 glycosidic linkage between the pyranose ring and the adjoining fluorophore. Release of the free fluorophore (4-MU) was monitored spectroscopically as described above for the arylsulfatase assay using 4-MU sulfate. The two sulfatase assays differed in the choice of substrate in accordance to their specificity as well as the glucosidase added during the second, […] step. For the 6-O-sulfatase, the hydrolysis of the substrate 4-MU-β-D-GlcNAc,6S at the 6-OH position was coupled to β-glucosidase purified from sweet almonds (MP Biomedicals, Solon, Ohio, Catalog No. 195197). Likewise, N-sulfamidase hydrolysis of 4-MU-α-D-GlcNS at the 2-amino position was coupled to α-glucosidase (MP Biomedicals, Catalog No. 153487). […] The presumption of the first (sulfatase) activity being the rate-limiting step was established experimentally. Reaction conditions were optimized to satisfy three related criteria: 1) linear readout of fluorescent signal which is directly proportional to sulfatase activity; 2) quantitative release of 4-MU by glucosidase activity under every biochemical condition examined and; 3) negligible fluorescent quenching of the free chromophore.
Coupled N-sulfamidase assay was generally described for the 6-O-sulfatase, but with the following modifications: 4-MU-GlcNS as substrate, 50 mM sodium acetate at pH 6.0 (instead of 5.5) and 1 μM enzyme. For the second enzyme step, 5 units of α-glucosidase were added. Enzyme incubation was carried out for 22 hours at 37° C. The obvious difference in enzyme efficacies between α-glucosidase versus β-glucosidase is reflected in the substantially longer incubation times required for the α-glucosidase to quantitatively hydrolyze the glycosidic α1→4 linkage between the fluorophore and the desulfated glucosamine. […]

[3] = substrate: CC(=O)N[C@H]1[C@H](Oc2ccc3c(C)cc(=O)oc3c2)O[C@H](COS(=O)(=O)O)[C@@H](O)[C@@H]1O; experiment: Steady-state kinetics, coupled 6-O-sulfatase/β-glucosidase fluorimetric assay with 4-MU-GlcNAc,6S; type: biochemical, Flavobacterium heparinum (Pedobacter heparinus)
Text: Recombinant protein expression in the E. coli strain BL21(DE3) and one-step affinity purification by nickel chelation chromatography were as described for 2-O-sulfatase (Myette et al., 2003 J Biol Chem 278, 12157-12166). The prediction of NH2-terminal signal sequences and putative cleavage sites for the two respective proteins was made by the Von Heijne computational method (Nielsen et al., 1997 Protein Eng 10, 1-6.). Engineering and expression of these truncated proteins (minus signal sequences) were as described above for the full-length genes with the exception of substituting the 5′ primers which were used in the original PCR amplification step. These internal primers included 5′ TCTAGACATATGTCTTGCCAGCAGCCTAAAC 3′ (for ORF B; SEQ ID NO: 15) and 5′ TCTAGACATATGTCCTGCACTTCGCCGGAA 3′ (for ORF C; SEQ ID NO: 16), with the Nde 1 site underlined. As such, the ORF B gene sequence begins at Met 18 (FIG. 1). Likewise, the ORF C gene sequence begins at Ser 21 (FIG. 2). Removal of the 6×His tag was achieved by site-specific protease cleavage using the thrombin cleavage capture kit (Novagen, San Diego, Calif.). Proteolysis conditions were generally as described for other recombinantly expressed flavobacterial heparin degrading enzymes. Following concentrating the enzymes by ultrafiltration, cleaved proteins were dialyzed overnight against 4 liters of 50 mM Tris, pH 7.5 and 0.1 M NaCl, 4° C., using a 3 mL slide-a-lyzer cassette with a 10,000 molecular weight cutoff (MWCO) (Pierce Chemical, Rockland, Ill.).
Coupled Enzyme Assay for the Determination of Biochemical Reaction Conditions and Steady-State Kinetics
as §1
For the 6-O-sulfatase/β-glucosidase assay, the standard reaction conditions included 2 μM recombinant enzyme, 50 mM sodium acetate buffer, pH 5.5, and 5 mM CaCl2 in a 20 μl reaction volume. 4-MU-GlcNAc,6S substrate concentration was varied from 0.1-2 mM. 2 μL of enzyme were added to each well of a microtiter plate (prechilled on ice), plate gently vortexed, and contents of each well spun down for 1 minute at 500×g, 4° C. The assay was initiated by transferring the 96 well plate to a heating block prequilibrated at 30° C. Sulfatase incubation (first enzyme) was carried out at 30° C. for 20 minutes, after which enzyme activity was inactivated by heat denaturation (95° C., 10 minutes). In the second enzyme (glucosidase) step, the microtiter plate was once again chilled on ice. […]

[4] = other: Addition: 0.5 mM Ca^+2, pH 5.5, 30° C.
[5] = other: Addition: 5 mM Ca^+2, pH 5.5, 30° C.
[6] = other: Addition: none, pH 5.5, 30° C.

Row | calcium requirement for activity [2] | effect of Mg^+2 or Mn^+2 on activity ([2]; 1 mM or 5 mM divalent metal) | Molecule | substrate specificity among four monosulfated 4-MU substrates [1] | activity remaining relative to the zero NaCl control ([2]; 1 M NaCl) | activity on the two 6-O-sulfated galactose sugars ([1]; 4-MU-Gal6S and 4-MU-GalNAc,6S) | Km [3, 4] | kcat [3, 4] | Km [3, 5] | kcat [3, 5] | Km [3, 6] | kcat [3, 6]
1 | required calcium for activity | only negligible effects | Flavobacterium heparinum N-sulfamidase (ORF C), recombinant, NH2-terminal truncation lacking signal sequence, SEQ ID NO: 4 (Pedobacter heparinus DSM 2366) (protein, E. coli BL21(DE3), N-terminal 6xHis removed by thrombin) SCTSPEKKTDRPNILMIMSDNQSWNHVGSYGDQTVRTPNMDRIAKEGVRFTNAFCSSPSCTPARAGMLTGQDIWRLEDGGNLWGVLPVKYKVYPDLLEEAGYAIGFQGKGWGPGSFEANKRPRNPAGNEFKSFGAFLKDKKEGPWCYWISSHEPHRPYVEGSGEKAGIDPNKVKVPAYLPDHISIRKDIADYYAAVETFDRELGEALDQLKASGELDNTVIVVCSDNGWQMPRGLANLYDFGTHVPLIISWPGKFKQDVVADNLVTLNDLAPTFLQLGKVPVPADMTGKSLLPIVEAGKKDEKPRDYVVLGRERHAFVRRHGLGYPGRAIRTKDYLYIKNYEPNRWPAGDPPFYGDIDPYMFNWPGETKYYLIEHKDDPKVKSFFELGMGKRPAEELFDINKDPDELHNLAALPEYQKIKQELVAKLRNYLVATKDPRETNGNIQIWDTAAYFSEIDKTPKPSKEMQKRFKLDSSYNYLK | could only hydrolyze the glucosamine sulfated at the 2-amino position | less than 20% |  |  |  |  |  |  | 
2 |  |  | Flavobacterium heparinum 6-O-sulfatase (ORF B), recombinant, NH2-terminal truncation lacking signal sequence, SEQ ID NO: 2 (Pedobacter heparinus DSM 2366) (protein, E. coli BL21(DE3), N-terminal 6xHis removed by thrombin) TLMSCQQPKPAESAKRPNIVFIMTDDHTIQAISAYGSKLVKTPNLDRIANEGMLFNNCFVTNAVCGPSRATILTGKYSHLNGLTDNSKVFDSTQVIYPQLLKKAGYQTAMIGKWHLGSTPMGFDYYSILPNQGQYYQPEFIENGHLVKEKGYVTDLITDKAIGFLEKRDHDKPFLMIYQHKAPHRNWLPAPRHLGMFDDTVFPEPANLLDDFKGRGRAAKEQLMNISTDMWPAWDLKMLSTAQLDSMAKLPVSPKFKDAKGDDYQQANDPSLDKARFFEVYNRMTDAEKVQWRKVYDKRVAEFKRLNPKGADLVRWKYQQYMRDYLACVVSVDENVGRLMDYLKKIGELDNTIIVYTSDQGFYLGEHGYFDKRFMYDESFRTPLMVRYPPSVKAGSVSNAFAMNLDFAPTLLDYAGVKIPADMQGLSLRPVLDNAGKSPENWRKAVYYHYYEFPSWHMVKRHYGIRTERYKLIHFYNDIDEWELYDMQKDPHEMQNLYNDKAYEPIIKDLKVQMKKLQVQYKDTNPTEAL | specific for the 6-O-sulfated glucosamine |  | did not act upon | 217 µM | 3.3 min⁻¹ | 327 µM | 6.8 min⁻¹ | 146 µM | 2.5 min⁻¹
